Measured values from paper PMC13246001, “Membrane binding controls the ATPase cycle and localization of MinD in Bacillus subtilis” (eLife, 2026).

B1: His-MinD (B. subtilis MinD, N-terminally His-tagged) [B. subtilis] / itself (parent)
chain: MGEAIVITSGKGGVGKTTTSANLGTALAILGKRVCLVDTDIGLRNLDVVMGLENRIIYDLVDVVEGRCKMHQALVKDKRFDDLLYLMPAAQTSDKTAVAPEQIKNMVQELKQEFDYVIIDCPAGIEQGYKNAVSGADKAIVVTTPEISAVRDADRIIGLLEQEENIEPPRLVVNRIRNHLMKNGDTMDIDEIVQHLSIDLLGIVADDDEVIKASNHGEPIAMDPKNRASIAYRNIARRILGESVPLQVLEEQNKGMMAKIKSFFGVRS

Variants of: B1
Assay: gel filtration (size-exclusion chromatography), self-association
Details: with itself; purification buffers supplied with excess Mg2+-ADP; read off a plot

Row | elution volume [mL] | Variant
1 | 15.8 | MGEAIVITSGKGGVGKTTTSANLGTALAILGKRVCLVDTAIGLRNLDVVMGLENRIIYDLVDVVEGRCKMHQALVKDKRFDDLLYLMPAAQTSDKTAVAPEQIKNMVQELKQEFDYVIIDCPAGIEQGYKNAVSGADKAIVVTTPEISAVRDADRIIGLLEQEENIEPPRLVVNRIRNHLMKNGDTMDIDEIVQHLSIDLLGIVADDDEVIKASNHGEPIAMDPKNRASIAYRNIARRILGESVPLQVLEEQNKGMMAKIKSFFGVRS [chain 1 D40A]
2 | 15.7 | MGEAIVITSGKGGVGATTTSANLGTALAILGKRVCLVDTDIGLRNLDVVMGLENRIIYDLVDVVEGRCKMHQALVKDKRFDDLLYLMPAAQTSDKTAVAPEQIKNMVQELKQEFDYVIIDCPAGIEQGYKNAVSGADKAIVVTTPEISAVRDADRIIGLLEQEENIEPPRLVVNRIRNHLMKNGDTMDIDEIVQHLSIDLLGIVADDDEVIKASNHGEPIAMDPKNRASIAYRNIARRILGESVPLQVLEEQNKGMMAKIKSFFGVRS [chain 1 K16A]
3 | 16.1 | MGEAIVITSGKVGVGKTTTSANLGTALAILGKRVCLVDTDIGLRNLDVVMGLENRIIYDLVDVVEGRCKMHQALVKDKRFDDLLYLMPAAQTSDKTAVAPEQIKNMVQELKQEFDYVIIDCPAGIEQGYKNAVSGADKAIVVTTPEISAVRDADRIIGLLEQEENIEPPRLVVNRIRNHLMKNGDTMDIDEIVQHLSIDLLGIVADDDEVIKASNHGEPIAMDPKNRASIAYRNIARRILGESVPLQVLEEQNKGMMAKIKSFFGVRS [chain 1 G12V]
